Measurements published in the supplement of paper PMC7877785.
± gives the uncertainty stated by the source.

Experiment: self-splicing fitness, log relative to wild type (ln ratio); higher = more splicing; Tetrahymena group I intron in knt gene, E. coli kanamycin selection, DiMSum; sequences stand for … in CUCUCU…GGAGGGAAAAGUUAUCAGGCAUGCACCUGGUAGCUAGUCUUUAAACCAAUAGAUUGCAUCGGUUUAAAAGGCAAGACCGUCAAAUUGCGGGAAAGGGGUCAACAGCCGUUCAGUACCAAGUCUCAGGGGAAACUUUGAGAUGGCCUUGCAAAGGGUAUGGUAAUAAGCUGACGGACAUGGUCCUAACCACGCAGCCAAGUCCUAAGUCAACAGAUCUUCUGUUGAUAUGGAUGCAGUUCACAGACUAAAUGUCGGUCGGGGAAGAUGUAUUCUUCUCAUAAGAUAUAGUCGGACCUCUCCUUAAUGGGAGCUAGCGGAUGAAGUGAUGCAACACUGGAGCCGCUGGGAACUAAUUUGUAUGCGAAAGUAUAUUGAUUAGUUUUGGAGUACUCGUGGUCG
In short: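 Colonies from six replicate transformations of E. coli BL21(DE3) were pooled and amplicon-sequenced on an Illumina HiSeq 2500. The library placed an intron with all eight P1ex-region nucleotides randomised inside the knt kanamycin-resistance gene on pET-22b(+), and cells grew overnight at 37°C or 30°C on LB agar with or without 25 μg/mL kanamycin (plus 100 μg/mL carbenicillin, 50 μM IPTG, 0.2% rhamnose). Fitness is the DiMSum error-weighted combination of wild-type-normalised replicate fold changes, kanamycin versus none.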

Sequence	self-splicing fitness (ln) (30 °C)	self-splicing fitness (ln) (37 °C)
UACCAGCAAUAUUACGUGGC	-4.31 ± 0.22	-3.66 ± 0.2
UACCAGCAAUAUUACGUGUC	-2.04 ± 0.1	-2.23 ± 0.15
UACCAGCAAUAUUACGUGUU	-3.72 ± 0.11	-1.38 ± 0.078
UACCAGCAAUAUUACGUUCC	-2.79 ± 0.19	-1.77 ± 0.22
UACCAGCAAUAUUACGUUUA	-0.529 ± 0.052	-0.264 ± 0.064
UACGAGCAAUAUUACGACCU	-2.35 ± 0.27	-1.82 ± 0.5
UACGAGCAAUAUUACGAGUG	-1.86 ± 0.07	-1.74 ± 0.1
UACGAGCAAUAUUACGCACU	-2.42 ± 0.29	-2.13 ± 0.28
UACGAGCAAUAUUACGCGUG	-4.43 ± 0.3	-2.7 ± 0.21
UACGAGCAAUAUUACGCUAG		-1.7 ± 0.46
UACGAGCAAUAUUACGGAAU	-2.71 ± 0.27	-2.76 ± 0.34
UACGAGCAAUAUUACGGCCU	-3.35 ± 0.18	-3.77 ± 0.46
UACGAGCAAUAUUACGGCGC	-2.53 ± 0.29	-2.4 ± 0.46
UACGAGCAAUAUUACGGGGA	-2.87 ± 0.29	-1.69 ± 0.19
UACGAGCAAUAUUACGGGGC		-3.34 ± 0.3
UACGAGCAAUAUUACGGUAC	-3.89 ± 0.3	-2.76 ± 0.34
UACGAGCAAUAUUACGGUCU	-4.06 ± 0.34	-3.1 ± 0.4
UACGAGCAAUAUUACGGUUC	-4.18 ± 0.19	-2.5 ± 0.15
UACGAGCAAUAUUACGUACG	-3.76 ± 0.23	-2.34 ± 0.18
UACGAGCAAUAUUACGUAGG	-3.41 ± 0.31	-2.57 ± 0.28
UACGAGCAAUAUUACGUAUA	-2.7 ± 0.2	-0.839 ± 0.14
UACGAGCAAUAUUACGUCGU	-4.08 ± 0.33	
UACGAGCAAUAUUACGUGAC	-4.06 ± 0.33	-1.76 ± 0.27
UACGAGCAAUAUUACGUGUU	-3.63 ± 0.19	-3.63 ± 0.29
UACGAGCAAUAUUACGUUUA	-2.32 ± 0.12	-1.79 ± 0.12

Sequence	self-splicing fitness (ln) (30 °C)	self-splicing fitness (ln) (37 °C)
UACUAGCAAUAUUACGAACA	-0.0493 ± 0.19	-0.55 ± 0.15
UACUAGCAAUAUUACGACAC	-2.53 ± 0.2	-0.604 ± 0.15
UACUAGCAAUAUUACGAGAC		-1.56 ± 0.25
UACUAGCAAUAUUACGAGGG	-2.3 ± 0.13	-2.52 ± 0.17
UACUAGCAAUAUUACGAUAU	-3.18 ± 0.17	-2.36 ± 0.17
UACUAGCAAUAUUACGAUGA	-0.469 ± 0.13	-0.321 ± 0.11
UACUAGCAAUAUUACGAUGG	-0.657 ± 0.12	-0.406 ± 0.2
UACUAGCAAUAUUACGCAAU	-3.82 ± 0.23	-1.63 ± 0.16
UACUAGCAAUAUUACGCAGU	-3.26 ± 0.35	-3.09 ± 0.34
UACUAGCAAUAUUACGCCCA	-0.901 ± 0.21	0.802 ± 0.33
UACUAGCAAUAUUACGCCCC	-2.19 ± 0.41	-1.18 ± 0.43
UACUAGCAAUAUUACGGAGU	-3.43 ± 0.24	-3.25 ± 0.29
UACUAGCAAUAUUACGGCAU	-1.36 ± 0.095	-1.28 ± 0.099
UACUAGCAAUAUUACGGCGG	-0.694 ± 0.11	0.0905 ± 0.13
UACUAGCAAUAUUACGGCGU	-2.16 ± 0.11	-0.707 ± 0.12
UACUAGCAAUAUUACGGCUA	-1.58 ± 0.12	-0.671 ± 0.099
UACUAGCAAUAUUACGGGAU	-3.17 ± 0.17	-1.43 ± 0.13
UACUAGCAAUAUUACGGGUC	-2.68 ± 0.21	-2.29 ± 0.26
UACUAGCAAUAUUACGGGUG	-0.974 ± 0.077	-0.232 ± 0.075
UACUAGCAAUAUUACGGGUU	-2.34 ± 0.18	-1.78 ± 0.16
UACUAGCAAUAUUACGGUAC	-3.01 ± 0.18	-2.53 ± 0.23
UACUAGCAAUAUUACGGUGG	-2.1 ± 0.09	-1 ± 0.098
UACUAGCAAUAUUACGUGCA	-1.01 ± 0.073	0.166 ± 0.09
UACUAGCAAUAUUACGUGCC	-1.33 ± 0.14	-2.6 ± 0.26
